Numbering of substitutions follows the chain as printed. Each block holds one binder with its values, some of them ahead of it.
How the values were obtained:
[1] = molecular target: T1, recombinant human Tau monomer, 2N4R isoform (amino acids 2-441) (human, UniProt P10636-8 2-441); assay: SPR, captured IgG, Tau monomer analyte, 1:1 model; fit-quality column: Yes
T1 construct: range 2-441; N-terminal His-tag removed with TEV protease; also called monomeric Tau
Method: (§1) Briefly, IgGs in 1 mL culuture were captured using tip columns that were custom packed with 20 μL MabSelect SuRe resin (Glygen Corp & GE Healthcare). After washing with 1×PBS pH 7.4, IgGs were eluted into 160 μL of 50 mM phosphoric acid pH 3 and neutralized with 12 μL of 20×PBS pH 11. MabSelect SuRe tip columns were stripped in 0.1 M NaOH and regenerated with 1×PBS pH 7.4 for consecutive use of up to 15 times. Purified antibodies in 96-well format were normalized to 0.1 mg/ml using a Hamilton Star liquid handling robot. The “pre-stress” samples were kept at approximately 4° C. and the “post-stress” samples were incubated at 40° C. for two weeks in a PCR machine. Functional stability of the variants was compared by running surface plasmon resonance kinetics experiments with the “pre-stress” and “post-stress” antibody preps. The antibodies were assessed using a human antibody capture CM5 Series S chip generated using the GE Biacore human IgG capture kit and a Biacore T200 instrument. Antibodies diluted to 2 μg/ml were immobilized using a 15 second injection time and 10 μl/min flow rate. Binding to Tau monomer at 0 nM, 26.5 nM and 265 nM, at 25° C., using a flow rate of 40 μl/min, was monitored for a 180 second association phase followed by a 300 second dissociation phase. Samples were run in 10 mM HEPES pH7.4, 150 mM NaCl, 0.05% Tween 20 (HBSP) using a multi-cycle kinetics format. Data was analyzed using BIAevaluation software, fitting a 1:1 binding model. The resulting affinity (KD) values are shown in FIG. 8A-D. A Stability Index was also calculated, using the rationale that affinity-compromised antibodies (due for example to deamidation of key residues) are expected to contribute equally to the IgG capture level (“Ligand Level”) but to contribute less to the measured Tau binding, and that this would be reflected in the experimentally derived value for Rmax. To account for variations in the amount of each antibody captured, Rmax was normalized for the antibody capture level (as measured by “Ligand Level”, Response Units immobilized during antibody capture). Thus Normalized Rmax is calculated as the experimental Rmax (units=RU) divided by the “Ligand Level” (Evaluation output representing the RU captured during the hIgG capture step, units=RU), and Stability Index is calculated here as Normalized Rmax (post-stress) divided by Normalized Rmax (pre-stress).

[2] = molecular target: T1, recombinant human Tau monomer, 2N4R …; assay: SPR; Normalized Rmax post-stress (2 weeks 40 C) / pre-stress
Method: as §1

T1 sequence (P10636 other isoform, or with tags, fused parts or gaps limits assumed): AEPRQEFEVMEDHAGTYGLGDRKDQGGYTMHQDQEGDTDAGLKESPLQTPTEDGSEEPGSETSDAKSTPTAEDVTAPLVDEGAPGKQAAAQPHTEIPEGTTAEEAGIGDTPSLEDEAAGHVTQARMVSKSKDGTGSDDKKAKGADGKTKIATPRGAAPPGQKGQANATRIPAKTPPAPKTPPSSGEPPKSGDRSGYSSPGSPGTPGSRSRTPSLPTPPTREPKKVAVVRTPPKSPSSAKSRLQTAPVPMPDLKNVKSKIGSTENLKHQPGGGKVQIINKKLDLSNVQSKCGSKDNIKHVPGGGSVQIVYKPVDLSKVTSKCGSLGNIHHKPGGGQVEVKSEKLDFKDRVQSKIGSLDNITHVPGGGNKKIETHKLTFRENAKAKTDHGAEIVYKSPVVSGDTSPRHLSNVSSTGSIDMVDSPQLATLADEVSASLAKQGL

- Kd [1]: 0.9 nM
- Stability Index [2]: 78%
B1: hu37D3.v28 (antibody, V domains shown)
VH: EVQLVESGGGLVQPGGSLRLSCAASGLIFRSYGMSWVRQAPGKGLEWVATINSGGTYTYYPDSVKGRFTISRDNSKNTLYLQMNSLRAEDTAVYYCANSYSGAMDYWGQGTLVTVSS
VL: DDVLTQTPLSLPVTPGQPASISCRSSQSIVHSNGNTYFEWYLQKPGQSPQLLIYKVSNRFSGVPDRFSGSGSGTDFTLKISRVEAEDVGVYYCFQGSLVPWTFGQGTKVEIK

- Kd [1]: 22 nM
- Stability Index [2]: 87%
B2: hu37D3-H9.v30.4 (antibody, V domains shown)
VH: B1 VH
VL: B1 VL with N33L

- Kd [1]: 23.5 nM
- Stability Index [2]: 87%
B3: hu37D3-H9.v30.1 (antibody, V domains shown)
VH: B1 VH
VL: B1 VL with N33G

- Kd [1]: 2.2 nM
- Stability Index [2]: 90%
B4: hu37D3-H9.v5.8 (antibody, V domains shown)
VH: B1 VH
VL: B1 VL with D1E, N35Q

- Kd [1]: 13 nM
- Stability Index [2]: 67%
B5: hu37D3-H9.v5.7 (antibody, V domains shown)
VH: B1 VH
VL: B1 VL with D1E, N35D

- Kd [1]: 10.9 nM
- Stability Index [2]: 97%
B6: hu37D3-H9.v5.2 (antibody, V domains shown)
VH: B1 VH
VL: B1 VL with D1E, N33S

- Kd [1]: 38.1 nM
- Stability Index [2]: 83%
B7: hu37D3-H9.v30.3 (antibody, V domains shown)
VH: B1 VH
VL: B1 VL with N33V

- Kd [1]: 5.3 nM
- Stability Index [2]: 95%
B8: hu37D3-H9.v5.9 (antibody, V domains shown)
VH: B1 VH
VL: B1 VL with D1E, N35E

- Kd [1]: 4.2 nM
- Stability Index [2]: 96%
B9: hu37D3-H9.v30.2 (antibody, V domains shown)
VH: B1 VH
VL: B1 VL with N33T

- Kd [1]: 15.5 nM
- Stability Index [2]: 90%
B10: hu37D3-H9.v31.6 (antibody, V domains shown)
VH: B1 VH
VL: B1 VL with G34A, N35Y

- Kd [1]: 15.2 nM
- Stability Index [2]: 85%
B11: hu37D3-H9.v31.5 (antibody, V domains shown)
VH: B1 VH
VL: B1 VL with G34A, N35F

- Kd [1]: 6.9 nM
- Stability Index [2]: 83%
B12: hu37D3-H9.v31.7 (antibody, V domains shown)
VH: B1 VH
VL: B1 VL with G34A, N35R

- Kd [1]: 9.8 nM
- Stability Index [2]: 93%
B13: hu37D3-H9.v31.3 (antibody, V domains shown)
VH: B1 VH
VL: B1 VL with G34A, N35I

- Kd [1]: 10.6 nM
- Stability Index [2]: 90%
B14: hu37D3-H9.v31.2 (antibody, V domains shown)
VH: B1 VH
VL: B1 VL with G34A, N35V

- Kd [1]: 4.7 nM
- Stability Index [2]: 78%
B15: hu37D3-H9.v5.10 (antibody, V domains shown)
VH: B1 VH
VL: B1 VL with D1E, N35A

- Kd [1]: 97.7 nM
- Stability Index [2]: 71%
B16: hu37D3-H9.v5.11 (antibody, V domains shown)
VH: B1 VH
VL: B1 VL with D1E, N35S

Source: patent publication US20190367592A1 (AC IMMUNE, published 2019)
